Reference: the Human Domainome abundance scans (Beltran et al. 2025)
± gives the uncertainty stated by the source.

B1: Double-stranded RNA-specific adenosine deaminase, residues 296 to 358; numbered along this chain, P55265 (parent)
chain: MAEIKEKICDYLFNVSDSSALNLAKNIGLTKARDINAVLIDMERQGDVYRQGTTPPIWHLTDK

Variants of: B1
Assay: abundance fitness (aPCA) (normalised: wild type 0, dead -1); higher = more abundant; growth selection in yeast, the domain comes from the species named
Details: Homo sapiens

Point of comparison: MAEIKGKICDYLFNVSDSSALNLAKNIGLTKARDINAVLIDMERQGDVYRQGTTPPIWHLTDK [E6G], abundance fitness -0.246 ± 0.056. Against it:
- MALIKEKICDYLFNVSDSSALNLAKNIGLTKARDINAVLIDMERQGDVYRQGTTPPIWHLTDK [E3L] — lower, -0.552 ± 0.055
- MAPIKEKICDYLFNVSDSSALNLAKNIGLTKARDINAVLIDMERQGDVYRQGTTPPIWHLTDK [E3P] — lower, -0.383 ± 0.077
- MASIKEKICDYLFNVSDSSALNLAKNIGLTKARDINAVLIDMERQGDVYRQGTTPPIWHLTDK [E3S] — within error, -0.213 ± 0.045
- MAEIKEKICDYLFNVSDSSALNLAKNIGLTKARDINAVLIMMERQGDVYRQGTTPPIWHLTDK [D41M] — lower, -0.539 ± 0.15
- MAEIKEKICDYLFNVSDSSALNLAKNIGLTKARDINAVLIDMERQVDVYRQGTTPPIWHLTDK [G46V] — lower, -0.613 ± 0.073
- MAEIKEKICDYLFNVSDSSALNLAKNIGLTKARDINAVLIDMERQWDVYRQGTTPPIWHLTDK [G46W] — lower, -1.15 ± 0.18
- MAEIKEKICDYLFNVSDSSALNLAKNIGLTKARDINAVLIDMESQGDVYRQGTTPPIWHLTDK [R44S] — within error, -0.173 ± 0.046
- MAEIKEKICDYLFNVSDSSALNLAKNIGLTKARDINAVLIDMEMQGDVYRQGTTPPIWHLTDK [R44M] — within error, -0.27 ± 0.061
- MAEIKEKICDYLFNVSDSSALNLAKNIGLTKARDINAVLIDMENQGDVYRQGTTPPIWHLTDK [R44N] — higher, -0.056 ± 0.094
- MAEIKEKICDYLFNVSDSSALNLAKNIGLTKARDINAVCIDMERQGDVYRQGTTPPIWHLTDK [L39C] — lower, -0.528 ± 0.1
- MAEIKEKICDYLFNVSDSSALNLAKNIGLTKARDINAVNIDMERQGDVYRQGTTPPIWHLTDK [L39N] — lower, -0.393 ± 0.089
- MAEIKEKICDYLFNVSDSSALNLAKNIGLTKARDINAVSIDMERQGDVYRQGTTPPIWHLTDK [L39S] — within error, -0.265 ± 0.052
- MAEIKEKICDYLFNVSDSSALNLAKNIGLTKARDINAVLIDMERQGDVYRQGTTPPIDHLTDK [W58D] — lower, -0.434 ± 0.075
- MAEIKEKICDYLFNVSDSSALNLAKNIGLTKARDANAVLIDMERQGDVYRQGTTPPIWHLTDK [I35A] — within error, -0.326 ± 0.048
- MAEIKEKICDYLFNVSDSSALNLAKNIGLTKARDINAVLIDMERQGDVYRQGTTPPIWHLTSK [D62S] — higher, -0.083 ± 0.048
- MAEIKEKICDYLFNVSDSSALNLAKNIGLTKARDINAVLIDMERQGDVYRQGTTPPIWHLTWK [D62W] — lower, -0.445 ± 0.087
- MAEIKEKICDYLFNVSDSSALNLAKNIGLTKARDINAVLIDMERQGDVYRQGTTPQIWHLTDK [P56Q] — lower, -0.541 ± 0.1
- MAEIKEKICDYLFNVSDSSALNLAKNIGLTKARDINAVLIDMERQGDVYRQGTTPRIWHLTDK [P56R] — lower, -0.686 ± 0.15
- MAEIKEKICDYLFNVSDSSALNLAKNIGLTKARDINAVLIDMERQGDVYRQGTTQPIWHLTDK [P55Q] — lower, -0.486 ± 0.086
- MAEIKEKICDYLFNVSDSSALNLAKNIGLTKARDINAVLIDMERQGDVYRQGTTLPIWHLTDK [P55L] — lower, -0.594 ± 0.068
- MAEIKEKICDYLFNVSDSSALNLAKNINLTKARDINAVLIDMERQGDVYRQGTTPPIWHLTDK [G28N] — lower, -0.43 ± 0.11
- MAEIKEKICDYLFNVSDSSALNLAKNIGLTKARDINAVLIDMERQGDVYRQGTTPPIWQLTDK [H59Q] — within error, -0.175 ± 0.059
- MAEIKEKICDYLFNVSDSSALNLAKNIGLTKARDINAVLIDMERQGDVYRQGTTPPIWELTDK [H59E] — within error, -0.301 ± 0.092
- MAEIKEKICDYLVNVSDSSALNLAKNIGLTKARDINAVLIDMERQGDVYRQGTTPPIWHLTDK [F13V] — higher, -0.061 ± 0.055
- DAEIKEKICDYLFNVSDSSALNLAKNIGLTKARDINAVLIDMERQGDVYRQGTTPPIWHLTDK [M1D] — within error, -0.359 ± 0.11
- MAEIKEKICDYLFNVSDSSALNLAKNIGLTKARDINAVLIDMERQGDDYRQGTTPPIWHLTDK [V48D] — within error, -0.335 ± 0.087
- MAEIKEKICDYLFNVSDSSALNMAKNIGLTKARDINAVLIDMERQGDVYRQGTTPPIWHLTDK [L23M] — within error, -0.374 ± 0.11
- MAEIKEKICDYLFNVSDSSALNLAKNIGLRKARDINAVLIDMERQGDVYRQGTTPPIWHLTDK [T30R] — lower, -0.352 ± 0.047
- MAEIKEKICDYLFNVSDSSALNLAKNIGLVKARDINAVLIDMERQGDVYRQGTTPPIWHLTDK [T30V] — within error, -0.201 ± 0.058
- MAEIKEKICDYLFNVSDSSALNLAKNIGLGKARDINAVLIDMERQGDVYRQGTTPPIWHLTDK [T30G] — higher, -0.054 ± 0.055
- MAEIKEKICDYLFNVSDSSALNLAKNIGLTKARDINAVLIDMERQGDVCRQGTTPPIWHLTDK [Y49C] — higher, 0.078 ± 0.059
- MAEIKEKICDYLFNVSDSSALNLAKNIGLTKARDINAVLIDMERQGDVYRDGTTPPIWHLTDK [Q51D] — higher, 0.22 ± 0.072
- MAEIKEKICDYLFNVSDSSALNLAKNIGLTKARDIYAVLIDMERQGDVYRQGTTPPIWHLTDK [N36Y] — within error, -0.232 ± 0.077
- MLEIKEKICDYLFNVSDSSALNLAKNIGLTKARDINAVLIDMERQGDVYRQGTTPPIWHLTDK [A2L] — higher, -0.096 ± 0.06
- MEEIKEKICDYLFNVSDSSALNLAKNIGLTKARDINAVLIDMERQGDVYRQGTTPPIWHLTDK [A2E] — higher, 0.3 ± 0.057
- MTEIKEKICDYLFNVSDSSALNLAKNIGLTKARDINAVLIDMERQGDVYRQGTTPPIWHLTDK [A2T] — within error, -0.152 ± 0.086
- MAEIKEKRCDYLFNVSDSSALNLAKNIGLTKARDINAVLIDMERQGDVYRQGTTPPIWHLTDK [I8R] — within error, -0.374 ± 0.11
- MAEIKEKICGYLFNVSDSSALNLAKNIGLTKARDINAVLIDMERQGDVYRQGTTPPIWHLTDK [D10G] — lower, -0.514 ± 0.073
- MAEIKEKICYYLFNVSDSSALNLAKNIGLTKARDINAVLIDMERQGDVYRQGTTPPIWHLTDK [D10Y] — within error, -0.453 ± 0.17
- MAEIKEKICDYLFNVSDSSALNLAKNIGLTKARDINAVLIDMLRQGDVYRQGTTPPIWHLTDK [E43L] — lower, -0.93 ± 0.078
- MAEIKEKICDYLFNVSDSSALNLAKNIGLTKARDINAVLIDMSRQGDVYRQGTTPPIWHLTDK [E43S] — lower, -0.841 ± 0.08
